Assay results reported in PMC6509562, “Properties of the HtrA Protease From Bacterium Helicobacter pylori Whose Activity Is Indispensable for Growth Under Stress Conditions” (Frontiers in Microbiology, 2019).

Assays:
[1] = biological target: HtrAHpS221A from H. pylori strain N6 (Helicobacter pylori strain N6) (UniProt B5Z6H5); assay: AUC
[2] = biological target: the molecule itself; assay: SEC; Superose 12HR 10/30, 300 mM NaCl, 50 mM Na-phosphate pH 6.5 or 8.0, room temperature; refolded HtrA variant 41 uM without substrate

Molecule: HtrAHpS221A from H. pylori strain N6 (from UniProt B5Z6H5 1-476) (enzyme)
- content of peak 1 (6.1 S) at 0.65 mg/ml [1]: 38%
- content of peak 1 (6.1 S) at 1.6 mg/ml [1]: 38%
- content of peak 1 (6.1 S) at 3.3 mg/ml [1]: 38%
- content of peak 2 (8.9 S) at 3.3 mg/ml [1]: 3.4%
- content of peak 3 (10.3 S) at 1.6 mg/ml [1]: 8.8%
- content of peak 3 (10.6 S) at 3.3 mg/ml [1]: 5.1%
- content of peak 3 (11.0 S) at 0.65 mg/ml [1]: 12%
- content of peak 4 (12.4 S) at 3.3 mg/ml [1]: 3.8%
- content of peak 4 (13.0 S) at 1.6 mg/ml [1]: 3.2%
- content of peak 5 (15.7 S) at 3.3 mg/ml [1]: 9%
- content of peak 5 (15.8 S) at 0.65 mg/ml [1]: 8.1%
- content of peak 5 (15.8 S) at 1.6 mg/ml [1]: 7.9%
- content of peak 6 (19.5 S) at 3.3 mg/ml [1]: 28%
- content of peak 6 (19.9 S) at 0.65 mg/ml [1]: 29%
- content of peak 6 (19.9 S) at 1.6 mg/ml [1]: 30%
- content of peak 7 (22.8 S) at 3.3 mg/ml [1]: 3.1%
- content of peak 8 (24.5 S) at 0.65 mg/ml [1]: 4.8%
- content of peak 8 (25.6 S) at 1.6 mg/ml [1]: 5.9%
- content of peak 8 (25.8 S) at 3.3 mg/ml [1]: 3.6%

B1: HtrAEcS210A from Escherichia coli (enzyme, UniProt P0C0V0 27-474, looked up)
chain: AETSSATTAQQMPSLAPMLEKVMPSVVSINVEGSTTVNTPRMPRNFQQFFGDDSPFCQEGSPFQSSPFCQGGQGGNGGGQQQKFMALGSGVIIDADKGYVVTNNHVVDNATVIKVQLSDGRKFDAKMVGKDPRSDIALIQIQNPKNLTAIKMADSDALRVGDYTVAIGNPFGLGETVTSGIVSALGRSGLNAENYENFIQTDAAINRGNAGGALVNLNGELIGINTAILAPDGGNIGIGFAIPSNMVKNLTSQMVEYGQVKRGELGIMGTELNSELAKAMKVDAQRGAFVSQVLPNSSAAKAGIKAGDVITSLNGKPISSFAALRAQVGTMPVGSKLTLGLLRDGKQVNVNLELQQSSQNQVDSSSIFNGIEGAEMSNKGKDQGVVVNNVKTGTPAAQIGLKKGDVIIGANQQAVKNIAELRKVLDSKPSVLALNIQRGDSTIYLLMQ
notes: also called DegP S210A; S/A
- stoichiometry N [2]: 6
